Laboratory results reported in US20220363762A1, “METHODS AND COMBINATIONS FOR THE TREATMENT OF CANCER USING IMMUNE CHECKPOINT INHIBITOR ANTIBODIES” (ASTRAZENECA AB, priority 2020, published 2022).

Columns and labels:
Type in all cases: in vivo, human
advanced HCC = assay: Randomized, open-label, multi-center clinical study of durvalumab and tremelimumab (Example 2): efficacy; conditions: for ORR, % / Median (95% CI) OS, mo: Table 1, per study arm; for Median (95% CI) OS, mo: 95% CI in cell beside; for Median PFS (95% CI): patients with advanced HCC
Protocol: The study disclosed below is a randomized, open-label, multi-center, global, clinical study to assess the efficacy and safety of durvalumab monotherapy and durvalumab plus tremelimumab combination therapy versus sorafenib in the treatment of immune checkpoint inhibitor-naïve patients with HCC who progressed on, were intolerant to, or refused sorafenib. In the foregoing disclosure, a flat-dose regimen of 1500 mg (approximately equivalent to 20 mg/kg) of durvalumab plus 300 mg (equivalent to 4 mg/kg) of tremelimumab was used in this study.
The study population included patients 18 years of age or older with advanced HCC, Barcelona Clinic Liver Cancer Stage B (not eligible for locoregional therapy) or stage C, and Child-Pugh A classification liver disease. Patients must not have received any prior systemic therapy for HCC. Patients were stratified according to macrovascular invasion (yes versus no), etiology of liver disease (hepatitis B virus [confirmed HBV] versus hepatitis C virus [confirmed HCV] versus others), and performance status (Eastern Cooperative Oncology Group [ECOG] 0 versus 1).
A total of 332 patients were enrolled (T300+D, n=75; durvalumab, n=104; tremelimumab, n=69; T75+D, n=84). Patients were randomized in an equal ratio to groups treated with durvalumab 1500 mg monotherapy (D), tremelimumab 750 mg monotherapy (T), combination therapy with durvalumab 1500 mg plus tremelimumab 75 mg×4 doses (T75+D) followed by durvalumab Q4W, combination therapy with durvalumab 1500 mg plus tremelimumab 300 mg xl dose (T 300+D) followed by durvalumab Q4W. Upon closure to further enrollment into the T75+D arm, patients were randomized in an equal ratio to groups treated with D, T300+D, and Sorafenib. Durvalumab and tremelimumab were administered via intravenous (IV) infusion every 4 weeks (Q4W). Sorafenib was administered orally BID (see FIGS. 3 and 4).
Tremelimumab 750 mg via IV infusion Q4W starting at Week 0 for seven doses and then Q12W until confirmed PD, unacceptable toxicity, or any discontinuation criterion was met. (Note: If a patient's weight decreased to ≤30 kg, the patient received weight-based dosing of tremelimumab 10 mg/kg Q4W, until the weight increased to >30 kg, at which point the patient received the flat dose of tremelimumab 750 mg Q4W).
Durvalumab 1500 mg monotherapy • Durvalumab 1500 mg via IV infusion Q4W starting at Week 0 until confirmed PD, unacceptable toxicity, or any discontinuation criterion was met. (Note: If a patient's weight decreased to ≤30 kg, the patient received weight-based dosing of durvalumab 20 mg/kg Q4W, until the weight increased to >30 kg, at which point the patient received the flat dose of durvalumab 1500 mg Q4W.)
Durvalumab 1500 mg plus tremelimumab 75 mg×4 doses combination therapy (Arm B) • Durvalumab 1500 mg plus tremelimumab 75 mg×4 doses starting at Week 0, followed by durvalumab 1500 mg monotherapy Q4W starting 4 weeks after the final infusion of the combination therapy until confirmed PD, unacceptable toxicity, or any discontinuation criteria was met. (Note: If a patient's weight decreased to 30 kg or below (≤30 kg), the patient received weight-based dosing of durvalumab 20 mg/kg Q4W and tremelimumab 1 mg/kg Q4W, until the weight increased to >30 kg, at which point the patient received the original assigned flat dose of durvalumab 1500 mg Q4W with or without tremelimumab 75 mg Q4W.)
Durvalumab 1500 mg plus tremelimumab 300 mg×1 dose combination therapy (Arm C) • Durvalumab 1500 mg plus tremelimumab 300 mg×1 dose starting at Week 0, followed by durvalumab 1500 mg monotherapy Q4W starting 4 weeks after the first and final infusion of the combination therapy until confirmed PD, unacceptable toxicity, or any discontinuation criteria was met. […]

[1] = tested on: peripheral blood T cell receptors (TCRs); assay: Molecular analysis of peripheral blood T cell receptors (TCR clonal expansion); conditions: for Median expanded T cell clones at Day 29, n: Day 29, first cycle of Q4W dosing, spread in cell beside
Source text: This trend was not seen with monotherapy D or the lower dose T combination (T75+D) (FIG. 15). Additionally, greater clonal expansion of T-cells was associated with better OS and seen in D+T combination arms (FIG. 16).

[2] = tested on: proliferating CD8+Ki67+ T cells; assay: Exposure-response model: tremelimumab exposure versus proliferating CD8+Ki67+ T cells
Protocol: (§1) Finally, an exposure-response model was developed to describe the relationship between tremelimumab exposure and proliferating CD8+Ki67+ T cells in patients with uHCC. Relationships between tremelimumab trough concentration after the first dose (Cmin) and the maximum change from baseline (CFB) for CD8+ Ki67+ T cell counts were evaluated using linear and non-linear regression models. Covariate effects were evaluated on the model intercept and the drug effect (Emax) using a stepwise search approach. The relationship between CD8+ Ki67+ T cell count CFB and tremelimumab trough concentration was best described by an Emax model. The only statistically significant and well estimated covariate effect was the baseline CD8+ Ki67+ T cell count on Emax. The maximum effect was higher in patients with lower baseline CD8+ Ki67+ T cell counts and lower in patients with higher baseline CD8+ Ki67+ T cell counts. At the 10th, median, and 90th percentiles of baseline CD8+ (3, 9, and 25 cells/uL), the maximum effect is 593%, 341%, and 77.9% change from baseline, respectively.

[3] = Tremelimumab trough concentration after the first dose (Cmin); conditions: 300 mg tremelimumab
Protocol: as §1

Molecule: Durvalumab [reference compound]
- ORR, % (advanced HCC): 10.6%
- Median (95% CI) OS, mo (advanced HCC): 13.6 mo
- Median PFS (95% CI) (advanced HCC): 2.07 (1.84-2.83) months
- clonal expansion of T cells in responders compared to non-responders ([1]; Day 29): not seen
- Median expanded T cell clones at Day 29, n [1]: 32
- median increased T-cell clonal expansion, difference between arms ([1]; day 29, D versus T75+D arms): no significant difference

B1: Tremelimumab (antibody)
VL: PSSLSASVGDRVTITCRASQSINSYLDWYQQKPGKAPKLLIYAASSLQSGVPSRFSGSGSGTDFTLTISSLQPEDFATYYCQQYYSTPFTFGPGTKVEIKRTVAAPSVFIFPPSDEQLKSGTASVVCLLNNFYPREAKV
VH: GVVQPGRSLRLSCAASGFTFSSYGMHWVRQAPGKGLEWVAVIWYDGSNKYYADSVKGRFTISRDNSKNTLYLQMNSLRAEDTAVYYCARDPRGATLYYYYYGMDVWGQGTTVTVSSASTKGPSVFPLAPCSRSTSESTAALGCLVKDYFPEPVTVSWNSGALTSGVH
modifications: light chain variable region; heavy chain variable region
notes: anti-CTLA-4 antibody; arm T = tremelimumab 750 mg monotherapy
- maximum effect (Emax), change from baseline of CD8+ Ki67+ T cell count ([2]; 10th percentile of baseline CD8+ (3 cells/uL)): 593%
- maximum effect (Emax), change from baseline of CD8+ Ki67+ T cell count ([2]; 90th percentile of baseline CD8+ (25 cells/uL)): 77.9%
- estimated half-maximal effective concentration (EC50) ([2]; Emax model, Cmin versus maximum change from baseline of CD8+ Ki67+ T cell counts, uHCC patients): 5.24 µg/mL
- maximum effect (Emax), change from baseline of CD8+ Ki67+ T cell count ([2]; median baseline CD8+ (9 cells/uL)): 341%
- median Cmin [3]: 12900 ng/mL
- ORR, % (advanced HCC): 7.2%
- Median (95% CI) OS, mo (advanced HCC): 15.1 mo
- Median PFS (95% CI) (advanced HCC): 2.69 (1.87-5.29) months
- Median expanded T cell clones at Day 29, n [1]: 100
